Test results: article PMC10244946
pKd: −log10 of the molar value. Like-named read-outs stand apart in the source and are kept apart here.

How the values were obtained:
[1] = biological target: HER2 on HER2-expressing BT474 and SKOV-3 cells (human (endogenous in BT474 and SKOV-3)) (UniProt P04626); experiment: radioligand binding
[2] = biological target: HER2 (antigen of the Lindmo immunoreactive fraction assay; form not told); experiment: Lindmo assay
[3] = biological target: HER2 on HER2-expressing BT474 and SKOV-3 cells (human (endogenous in BT474 and SKOV-3)) (UniProt P04626); experiment: radioligand binding; remark: listed apart in the source

## iso-[^211At]AGMB-PODS-5F7GGC (VHH)
[1]
  percent of input activity bound to cells after 1 h at 4 °C: 7.5%
[2]
  immunoreactive fraction: 85.8%

## [^211At]MEAGMB-5F7GGC (VHH)
[1]
  pKd: 8.47
[2]
  immunoreactive fraction: 69%

## [^177Lu]Lu-DOTA-PODS-5F7GGC (VHH)
[2]
  immunoreactive fraction: 71.2%

## [^125I]MEGMIB-5F7GGC (VHH)
[1]
  percent associated with cells after 1 h at 4 °C: 5.8%

## iso-[^131I]GMIB-PODS-5F7GGC (VHH)
[1]
  pKd: 8.23
  percent of input activity bound to cells after 1 h at 4 °C: 7.4%
[3]
  pKd: 8.48
[2]
  immunoreactive fraction: 84%
